Measurements taken from patent US20120128704A1 (published 2012).

T1: survivin peptide on HLA-A*02:01 (human)
T1 peptide: LMLGEFLKL


Target: T1, survivin peptide on HLA-A*02:01
Assay: multimer staining
Procedure: Up to 1×10⁶ of cells were incubated in 50 μl volume for 25 min with 4 μg PE-labeled multimer on ice in the dark. For sorting, up to 5×10⁶ cells were incubated with 12 μg multimer in 100 μl PBS+0.5% human serum. CD8-APC antibody was then added at 1/50 for an additional 25 min. After staining cells were washed twice and either fixed in FACS buffer with 1% paraformaldehyde and analysed by flow cytometry using a FACSCalibur (BD Biosciences) or diluted in PBS+0.5% human serum with PI for sorting. 20-50×10⁶ total cells per priming culture were stained for sorting. PI-negative cells were gated and CD8⁺multimer⁺ T cells were sorted on a FACSAria cell sorter (BD Biosciences) with a 70 μm nozzle, at a rate of 15,000 events/s. […] Pentamer staining was performed according to the manufacturer's instructions.

| Binder | binding result |
| --- | --- |
| SW-Surv-72 (TCR, V domains shown) Valpha: AQKITQTQPGMFVQEKEAVTLDCTYDTSDQSYGLFWYKQPSSGEMIFLIYQGSYDEQNATEGRYSLNFQKARKSANLVISASQLGDSAMYFCAMREGGGYNKLIFGAGTRLAVHP Vbeta: SQTIHQWPATLVQPVGSPLSLECTVEGTSNPNLYWYRQAAGRGLQLLFYSVGIGQISSEVPQNLSASRPQDRQFILSSKKLLLSDSGFYLCAGQDLNTEAFFGQGTRLTVV | recognises |
| SW-Surv-22 (TCR, V domains shown) Valpha: EDQVTQSPEALRLQEGESSSLNCSYTVSGLRGLFWYRQDPGKGPEFLFTLYSAGEEKEKERLKATLTKKESFLHITAPKPEDSATYLCAVQAYSNSGYALNFGKGTSLLVTP Vbeta: SAVISQKPSRDICQRGTSLTIQCQVDSQVTMMFWYRQQPGQSLTLIATANQGSEATYESGFVIDKFPISRPNLTFSTLTVSNMSPEDSSIYLCSVEDSYGYTFGSGTRLTVV | recognises |
| SW-Surv-66 (TCR, V domains shown) Valpha: GENVEQHPSTLSVQEGDSAVIKCTYSDSASNYFPWYKQELGKRPQLIIDIRSNVGEKKDQRIAVTLNKTAKHFSLHITETQPEDSAVYFCAARAGNMLTFGGGTRLMVKP Vbeta: SQTIHQWPATLVQPVGSPLSLECTVEGTSNPNLYWYRQAAGRGLQLLFYSVGIGQISSEVPQNLSASRPQDRQFILSSKKLLLSDSGFYLCAWGTGLALYEQYFGPGTRLTVT | recognises |
